{"source": "paper PMC12514038", "about": "(2025)", "assay_in_all_cases": "SPR", "key": {"[1]": {"target": "T1, MPXV [change], residues A3-G181, C-terminal 6×His tag (pCAGGS, Expi293F) (mpox virus (MPXV))"}, "VACV , residues A3-G181 [2]": {"target": "T2, VACV , residues A3-G181 (vaccinia virus (VACV), UniProt P07612 3-181)"}, "VACV , residues A3-G181 [3]": {"target": "T2, VACV , residues A3-G181", "remark": "listed apart in the source"}, "[4]": {"target": "T1, MPXV [change], residues A3-G181, …", "remark": "listed apart in the source"}, "VACV , residues A3-G181 [5]": {"target": "T2, VACV , residues A3-G181", "remark": "listed apart in the source"}}, "note": "Read-outs that look alike come from different tables or passages of the source."}
{"binder": "hmMM1-40, humanized mMM1-40 monoclonal antibody (antibody, V domains shown) VH: QVQLVQSGAEVKKPGASVKVSCKASGYIFTRYWMHWVRQAPGQGLEWMGYINPSTGYTEYNQKFKDRVTMTRDTSTSTVYMELSSLRSEDTAVYYCARSDYTNYVFEYWGQGTLVTVSS VL: DVVMTQSPLSLPVTLGQPASISCRSSQSLVHSNGNTYLHWFQQRPGQSPRRLIYKVSNRFSGVPDRFSGSGSGTDFTLKISRVEAEDVGVYYCSQSTHVPYTFGGGTKVEIK", "values": [{"measurement": "Kd", "setting": "[1]", "result": 0.48, "unit": "nM"}, {"measurement": "Kd", "setting": "VACV , residues A3-G181 [2]", "result": 0.47, "unit": "nM"}, {"measurement": "koff", "setting": "VACV , residues A3-G181 [3]", "result": "6.19e-05", "unit": "s⁻¹"}]}
{"binder": "mMM1-16 monoclonal antibody (mouse variable regions, human IgG1/Igκ constant regions) (antibody, V domains shown) VH: QIQLQQSGAELARPGASVKLSCKASGYTFITYWIQWVKQRPGQGLEWIGAIYPGDGDTRYTQKFKAKATLTADKSSSTAYMQLSTLTSEDSAVYFCAKGDTYPAAMDYWGQGTSVTVSS VL: DIQMTQSPASLSASVGETVTITCRTSGNIHNYLAWYQQKQGRSPQLLVNNAKTLADGVPSRFSGSGSGTQYSLKINSLQPEDIGSYYCQHFWITPYTFGGGTKLEIK", "values": [{"measurement": "Kd", "setting": "[4]", "result": 6.3, "unit": "nM"}, {"measurement": "Kd", "setting": "VACV , residues A3-G181 [5]", "result": 0.72, "unit": "nM"}]}
